In data set [1] the target is T1, LexA repressor (wild type) (E. coli K-12 strain RW118, UniProt P0A7C2 1-202).
T1 sequence (looked up): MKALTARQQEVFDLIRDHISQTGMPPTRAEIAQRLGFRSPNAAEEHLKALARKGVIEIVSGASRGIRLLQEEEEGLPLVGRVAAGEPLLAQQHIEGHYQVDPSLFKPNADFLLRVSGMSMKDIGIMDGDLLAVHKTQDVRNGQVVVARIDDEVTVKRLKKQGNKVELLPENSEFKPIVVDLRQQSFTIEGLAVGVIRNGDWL
Kind of data set: cross-linking.

Data set [2] deals with the molecule itself. Briefly: cross-linking.
The next data set addresses LexA A29R1 (LexA29) (Escherichia coli K-12 RW118, UniProt P0A7C2 1-202, A29C). Briefly: EPR.
In another data set the target is LexA G54R1 (LexA54) (Escherichia coli K-12 RW118, UniProt P0A7C2 1-202, G54C). Briefly: EPR.
Data set [3] concerns the molecule itself. Kind of data set: cross-linking. The source holds these as a separate data set.
The data set “EPR” concerns the molecule itself. Kind of data set: EPR.

Results on five molecules are retold here after article PMC3159453 (Nucleic Acids Research, 2011).

Substitutions are numbered along the chain they refer to.

B1: LexA C-terminal fragment (CTD), product of self-cleavage (domain or fragment, E. coli K-12 strain RW118, UniProt P0A7C2 85-202, looked up)
chain: GEPLLAQQHIEGHYQVDPSLFKPNADFLLRVSGMSMKDIGIMDGDLLAVHKTQDVRNGQVVVARIDDEVTVKRLKKQGNKVELLPENSEFKPIVVDLRQQSFTIEGLAVGVIRNGDWL
On to B1, for which the binding result (in data set [1]; in “cross-linking [2]”) was “binds” each time.

B2: tisB operator 24 bp (Tis_1b/Tis_2b) (dsDNA)
DNA 1: TTTACTGTATAAATAAACAGTAAT
DNA 2: ATTACTGTTTATTTATACAGTAAA
Consider B2, for which the binding result with LexA A29R1 (LexA29) and in the data set with LexA G54R1 (LexA54) was “binds” throughout.

B3: LexA54 (Gly54 replaced by Cys), oxidized (natural protein, E. coli K-12 strain RW118, UniProt P0A7C2 1-202, looked up)
chain: T1 sequence (looked up) with G54C
modifications: covalently bound at residue 54 after oxidation with 0.1 mM CuSO4 and 0.5 mM 1,10-phenantroline
As to B3, the binding result in “cross-linking [3]” is listed as “binds”.

B4: LexA29 spin labeled (A29R1) (natural protein, E. coli K-12 strain RW118, UniProt P0A7C2 1-202, looked up)
chain: T1 sequence (looked up) with A29C
modifications: MTSSL nitroxide spin label (R1) on the cysteine at position 29
For the molecule B4, the binding result in “EPR” was “binds”.

B5: LexA54 spin labeled (G54R1) (natural protein, E. coli K-12 strain RW118, UniProt P0A7C2 1-202, looked up)
chain: T1 sequence (looked up) with G54C
modifications: MTSSL nitroxide spin label (R1) on the cysteine at position 54
On to B5, for which, in the data set “EPR”, the binding result is listed as “binds”.
